Assay results from patent US20020076795A1, “Novel TRF1 binding protein, methods of use thereof” (published 2002).

T1: human full length TRF1 fused to LexA (LexA-TRF1) (human, UniProt P0A7C2 1-202; P54274 2-439)
T1 construct: The construct comes from Bianchi et al. 1997; also called LexA-FL
T1 sequence (looked up): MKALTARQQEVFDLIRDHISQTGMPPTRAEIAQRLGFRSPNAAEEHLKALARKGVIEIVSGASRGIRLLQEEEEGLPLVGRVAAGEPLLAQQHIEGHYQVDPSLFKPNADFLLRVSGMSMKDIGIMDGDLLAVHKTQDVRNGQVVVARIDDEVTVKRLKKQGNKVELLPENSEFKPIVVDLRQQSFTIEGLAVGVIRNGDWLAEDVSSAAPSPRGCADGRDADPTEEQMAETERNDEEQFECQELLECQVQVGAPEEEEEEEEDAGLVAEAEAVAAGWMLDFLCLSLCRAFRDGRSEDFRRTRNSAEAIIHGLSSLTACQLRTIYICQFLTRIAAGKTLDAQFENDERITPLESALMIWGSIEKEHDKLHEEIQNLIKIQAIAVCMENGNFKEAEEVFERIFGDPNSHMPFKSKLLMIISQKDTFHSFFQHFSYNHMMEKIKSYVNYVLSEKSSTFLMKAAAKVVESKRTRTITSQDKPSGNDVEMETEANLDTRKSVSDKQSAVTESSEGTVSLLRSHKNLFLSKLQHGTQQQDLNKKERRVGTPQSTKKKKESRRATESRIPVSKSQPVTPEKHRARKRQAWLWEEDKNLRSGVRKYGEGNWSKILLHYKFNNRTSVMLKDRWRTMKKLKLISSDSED


Columns and labels:
[1] = target: T1, human full length TRF1 fused to LexA …; experiment: yeast two-hybrid, β-galactosidase; GAD without tankyrase sequences
Procedure: TR1L-4 and TR1L-12 were isolated from a human liver two-hybrid cDNA library (Clontech) created in pGad10. The library was screened with human full length TRF1 cDNA fused to LexA (LexA-TRF1) [Bianchi et al., EMBO J., 16:1785-1794 (1997)] in the yeast strain L40 as described [Hollenberg et al., Mol. Cell Biol., 15:3813-3822 (1995)]. Two-hybrid analysis was performed as described by Bianchi et al. [EMBO J., 16:1785-1794 (1997)]. β-galactosidase assays for the two-hybrid analysis was performed as described by Bianchi et al. [EMBO J., 16:1785-1794 (1997)].
Two-hybrid analysis was used to determine the interacting domains between tankyrase and TRF1. […] To determine the tankyrase-interacting domain in TRF1, two-hybrid analysis was performed with the 10-ANK repeat domain of TR1L-12 fused to the GAL4 activation domain (GAD-tankyrase) and full-length and deletion constructs of TRF1 fused to LexA. […] As observed previously, the amino-terminal acidic domain of TFR1 (LexAd68-C) activated transcription even in the absence of tankyrase sequences in the GAD fusion partner. […] Deletion of the acidic domain of TRF1 (ΔN66-LexA) abolished the interaction with GAD-tankyrase.

[2] = target: TRF1 (hTRF1) (Homo sapiens, UniProt P54274 P54274:2-439); experiment: EMSA; 13-120 ng TRF1 per 20 ul, 1 ng probe, 20 mM Hepes-KOH pH 7.9, 100 mM KCl, 100 ng sheared E. coli DNA, room temperature; slight nonspecific stimulation by tankyrase without NAD+; conditions: tags: baculovirus-derived (Bianchi et al. 1997); chain copies: 2 (homodimer, stated; several dimers per probe at high concentration); label: end-labeled
Procedure: Biol. 12:4834 (1992)] containing 12 tandem TTAGGG repeats. Baculovirus-derived TRF1 (13 to 120 ng) [Bianchi et al. EMBO J. 16:1785 (1997)] was incubated for 30 minutes at room temperature in a 20 μl reaction containing 20 mM Hepes-KOH (pH 7.9), 100 mM KCL, 0.5 mM DTT, 5% glycerol, 0.1% NP40, 100 ng sheared E. coli DNA, 100 ng β-casein, and 1 ng of labeled probe. In some cases, reactions were supplemented with NAD⁺ (0.2 mM) and baculovirus-derived human tankyrase (2.5 to 200 ng). Samples were fractionated on a 0.7% agarose gel run in 0.1× TBE (8.9 mM Tris-base, 8.9 mM Boric acid, and 0.2 mM EDTA) at 130 volts for 1 hour at room temperature. Gels were dried onto Whatman DE81 paper and autoradiographed.

Binder	binding result [1]	binding result [2]
GAL4 activation domain (GAD) (alone) (other, UniProt P04386 768-881, looked up, Control) ANFNQSGNIADSSLSFTFTNSSNGPNLITTQTNSQALSQPIASSNVHDNFMNNEITASKIDDGNNSKPLSPGWTDQTAYNAFGITTGMFNTTTMDDVYNYLFDDEDTPPNPKKE	no binding	
[TTAGGG]12 duplex, 142 bp HindIII-Asp718 fragment of pTH12 (dsDNA) DNA 1: TTAGGGTTAGGGTTAGGGTTAGGGTTAGGGTTAGGGTTAGGGTTAGGGTTAGGGTTAGGGTTAGGGTTAGGG DNA 2: CCCTAACCCTAACCCTAACCCTAACCCTAACCCTAACCCTAACCCTAACCCTAACCCTAACCCTAACCCTAA		binds
